According to the supplement of paper PMC9112550, “Optimization of the antimicrobial peptide Bac7 by deep mutational scanning” (BMC Biology, 2022):

Each sequence was assayed on Escherichia coli TOP10 (assay: shrunken log2 fold change of peptide-encoding DNA abundance (4.5 h post-induction vs induction); higher = less antimicrobial activity (less host growth inhibition)). Conditions: time post-induction: 4.5 h; library: site-saturation at positions 5, 18, 19, 20.
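Note: peptides expressed intracellularly from a pBAD plasmid library in pooled LB shake-flask culture, induced with 0.3% L-arabinose, DNA abundance read by NGS, three biological replicates, DESeq2 with apeglm shrinkage.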

| Sequence | shrunken log2 fold change |
| --- | --- |
| RRIRVRPPRLPRPRPRPQVTPRP | -0.425 |
| RRIRVRPPRLPRPRPRPQYCPRP | -0.095 |
| RRIRVRPPRLPRPRPRPRACPRP | 0.274 |
| RRIRVRPPRLPRPRPRPRCNPRP | -0.135 |
| RRIRVRPPRLPRPRPRPRCQPRP | 0.0744 |
| RRIRVRPPRLPRPRPRPRDIPRP | -0.0591 |
| RRIRVRPPRLPRPRPRPRDPPRP | 0.617 |
| RRIRVRPPRLPRPRPRPREDPRP | 0.489 |
| RRIRVRPPRLPRPRPRPREHPRP | 0.322 |
| RRIRVRPPRLPRPRPRPRHQPRP | -0.138 |
| RRIRVRPPRLPRPRPRPRICPRP | -0.229 |
| RRIRVRPPRLPRPRPRPRKRPRP | 0.572 |
| RRIRVRPPRLPRPRPRPRKVPRP | -0.0445 |
| RRIRVRPPRLPRPRPRPRKYPRP | -0.0723 |
| RRIRVRPPRLPRPRPRPRMFPRP | -0.0394 |
| RRIRVRPPRLPRPRPRPRMNPRP | -0.0411 |
| RRIRVRPPRLPRPRPRPRMPPRP | 0.278 |
| RRIRVRPPRLPRPRPRPRNCPRP | -0.129 |
| RRIRVRPPRLPRPRPRPRNVPRP | -0.192 |
| RRIRVRPPRLPRPRPRPRPHPRP | 0.351 |
| RRIRVRPPRLPRPRPRPRPLPRP | 0.378 |
| RRIRVRPPRLPRPRPRPRPRPRP | 0.62 |
| RRIRVRPPRLPRPRPRPRRAPRP | 0.751 |
| RRIRVRPPRLPRPRPRPRRGPRP | 0.579 |
| RRIRVRPPRLPRPRPRPRTQPRP | 0.0785 |

| Sequence | shrunken log2 fold change |
| --- | --- |
| RRIRVRPPRLPRPRPRPSATPRP | 0.43 |
| RRIRVRPPRLPRPRPRPSCNPRP | -0.509 |
| RRIRVRPPRLPRPRPRPSDPPRP | -0.179 |
| RRIRVRPPRLPRPRPRPSDRPRP | 0.194 |
| RRIRVRPPRLPRPRPRPSEVPRP | -0.138 |
| RRIRVRPPRLPRPRPRPSGPPRP | -0.119 |
| RRIRVRPPRLPRPRPRPSHDPRP | -0.159 |
| RRIRVRPPRLPRPRPRPSKLPRP | -0.797 |
| RRIRVRPPRLPRPRPRPSKRPRP | -0.229 |
| RRIRVRPPRLPRPRPRPSMIPRP | -0.375 |
| RRIRVRPPRLPRPRPRPSNGPRP | -0.219 |
| RRIRVRPPRLPRPRPRPSQWPRP | 0.0963 |
| RRIRVRPPRLPRPRPRPSRCPRP | -0.101 |
| RRIRVRPPRLPRPRPRPSTKPRP | -0.213 |
| RRIRVRPPRLPRPRPRPSTPPRP | -0.0614 |
| RRIRVRPPRLPRPRPRPSTYPRP | -0.288 |
| RRIRVRPPRLPRPRPRPSVHPRP | -0.0573 |
| RRIRVRPPRLPRPRPRPSVYPRP | -0.25 |
| RRIRVRPPRLPRPRPRPSWLPRP | 0.23 |
| RRIRVRPPRLPRPRPRPSWRPRP | -0.0696 |
| RRIRVRPPRLPRPRPRPSYLPRP | 0.753 |
| RRIRVRPPRLPRPRPRPSYRPRP | -0.775 |
| RRIRVRPPRLPRPRPRPTANPRP | 0.221 |
| RRIRVRPPRLPRPRPRPTAYPRP | -0.094 |
| RRIRVRPPRLPRPRPRPTCPPRP | 0.243 |

| Sequence | shrunken log2 fold change |
| --- | --- |
| RRIRVRPPRLPRPRPRPTDCPRP | -0.184 |
| RRIRVRPPRLPRPRPRPTEAPRP | 0.0175 |
| RRIRVRPPRLPRPRPRPTEDPRP | -0.113 |
| RRIRVRPPRLPRPRPRPTEWPRP | 0.322 |
| RRIRVRPPRLPRPRPRPTFMPRP | -0.0669 |
| RRIRVRPPRLPRPRPRPTGKPRP | -0.116 |
| RRIRVRPPRLPRPRPRPTGSPRP | -0.133 |
| RRIRVRPPRLPRPRPRPTGYPRP | -0.239 |
| RRIRVRPPRLPRPRPRPTICPRP | -0.604 |
| RRIRVRPPRLPRPRPRPTIDPRP | -0.0691 |
| RRIRVRPPRLPRPRPRPTKLPRP | -0.121 |
| RRIRVRPPRLPRPRPRPTLEPRP | 0.413 |
| RRIRVRPPRLPRPRPRPTLIPRP | 0.0816 |
| RRIRVRPPRLPRPRPRPTMFPRP | -0.158 |
| RRIRVRPPRLPRPRPRPTNHPRP | -0.384 |
| RRIRVRPPRLPRPRPRPTPMPRP | 0.259 |
| RRIRVRPPRLPRPRPRPTPQPRP | 0.279 |
| RRIRVRPPRLPRPRPRPTQFPRP | 0.203 |
| RRIRVRPPRLPRPRPRPTQGPRP | 0.291 |
| RRIRVRPPRLPRPRPRPTQIPRP | 0.149 |
| RRIRVRPPRLPRPRPRPTQQPRP | 0.346 |
| RRIRVRPPRLPRPRPRPTSEPRP | 0.066 |
| RRIRVRPPRLPRPRPRPTSVPRP | -0.0603 |
| RRIRVRPPRLPRPRPRPTTDPRP | -0.0625 |
| RRIRVRPPRLPRPRPRPTWYPRP | -0.0971 |
